Among the data in paper PMC12691273 are response values, retold here.

The test has as its target CRM1 protein (chromosome region maintenance 1). In words: co-immunoprecipitation (IP FOXO1, WB CRM1), band quantification. As to conditions: chicken granulosa cells, with 740-Y-P; n = 3; parent: est. 1.9; read off a plot.

As to “chicken forkhead box O1 (FOXO1) wild-type (from UniProt A0A8V0XGP1) S248A”, the response is 2.

Turning to “chicken forkhead box O1 (FOXO1) wild-type (from UniProt A0A8V0XGP1) S311A”, the response was 2.
